Assay [1] has as its target T1, p32 (Homo sapiens, UniProt Q07021).
T1 construct: made in house; host or cells: E. coli Rosetta-gami-2 (Novagen)
T1 sequence (Q07021 74-282): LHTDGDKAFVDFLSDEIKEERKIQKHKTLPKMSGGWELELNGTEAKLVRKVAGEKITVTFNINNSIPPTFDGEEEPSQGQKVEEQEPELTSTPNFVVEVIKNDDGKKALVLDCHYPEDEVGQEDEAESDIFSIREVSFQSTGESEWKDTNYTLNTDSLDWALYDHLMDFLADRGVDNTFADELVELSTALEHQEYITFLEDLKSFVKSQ
Nature of the assay: Fluorescence polarization assay with synthetic peptides on p32. Conditions: for inhibition of binding of labeled TT1 to P32 by unlabeled peptide: competition, fluorescence polarization. The class given is binding. From the text:
(§1) FIGS. 4A and 4B are plots showing a comparison of the binding of LyP-1 (SEQ ID NO: 7; diamonds) and TT1 (SEQ ID NO: 3; squares) to p32 in a fluorescence polarization assay. […] NRP-1 was used as a control protein.
FIG. 5 is a plot showing that P32-TT1 (CKRGARSTC; SEQ ID NO: 3) and LyP-1 (SEQ ID NO: 7) peptides competed for binding to the P32 protein. […] Squares: p32-TT1; Diamonds: LyP-1; X: RPARPAR peptide (SEQ ID NO: 14).
(§2) An exemplary RGXRS (SEQ ID NO: 4) pentapeptide motif-containing peptide with the sequence CKRGARSTC (SEQ ID NO: 3) was designated as the […] and used it for further studies. Mutating any amino acid in the consensus motif of TT1 abolished the phage binding to p32. This new peptide conferred about 15-fold stronger phage binding to immobilized p32 protein than did the canonical LyP-1 peptide.

Assay [2] addresses T1, p32. The experiment in a line: Binding of peptide-displaying T7 phage to p32-coated magnetic beads. The settings on record: p32-coated magnetic beads. As for the experimental part:
FIG. 10 is a bar graph showing that the p32 binding of the RGXR(S/T) motif (SEQ ID NOs: 4 and 5) in the exemplary TT1 peptide (SEQ ID NO: 3) was not dependent on the cyclic structure and compatible with flanking sequences. Phage clones displaying the indicated peptides were incubated in p32-coated magnetic microbeads. After washing to remove non-bound phage, specifically bound phage were quantified.
Milligram quantities of recombinant His-tagged p32 protein were expressed in E. coli and coated onto Ni-NTA magnetic beads, and biopanning was performed using two T7 bacteriophage peptide libraries (cyclic Cx7C and linear X7 library).
Variant peptide-encoding genomic DNA of phage was sequenced and analyzed for the presence of consensus motifs. After two rounds of selection, both linear and cyclic libraries converged to contain an RGXRS (SEQ ID NO: 4) pentapeptide motif (see FIG. 2B). The binding of RGXRS (SEQ ID NO: 4)-displaying phage to p32 was specific, as these phage bound to magnetic beads coated with p32 protein and not to beads coated with ligand-binding b1b2 domain of the cell and tissue penetration receptor NRP-1 or BSA (see FIG. 3).
as §2

The subject of assay [3] is orthotopic MCF10CA1a breast tumor xenografts. The experiment in a line: Tumor homing and penetration of peptide-conjugated nanoworms (NWs). The class given is in vivo, athymic nude mice. As for the experimental part:
FIG. 12 is a fluorescent micrograph showing tumor homing of linear TT1-NWs. Tumor-bearing mice were intravenously injected with FAM-LinTT1-coated NWs (7.5 mg iron/kg) and allowed to circulate for 5 hours. The mice were perfused through the heart with PBS, and tumors and organs were collected and processed for fluorescence microscopy. The left panel is a representative confocal microscopy image from tumors in mice. […]
FIG. 13 is a bar graph showing quantification of the homing of various peptide-coated NWs. […] Quantification of fluorescence was done with ImageJ software (available from the website of the United States National Institutes of Health). In addition to the tumors, NWs were detected in the liver and spleen, which non-specifically capture nanoparticles regardless of their peptide coating. […]
FIG. 15 is a bar graph showing tumor accumulation of NWs coated with chimeric peptides consisting of a homing peptide and pro-apoptotic peptide. Quantification of NW fluorescence was done with ImageJ software. […]
In vivo peptide homing. […] After 5-6 hours of NW circulation the mice were euthanized by cardiac perfusion with PBS under anesthesia, and tumors and organs were dissected and analyzed for particle homing.
Immunofluorescence. […] The primary antibody was detected with Alexa 594-labeled goat anti-rat secondary antibody (1:1000; Molecular Probes). […]

The next assay has as its system orthotopic breast tumors. Conditions: systemically administered; cited from earlier work.
The subject of another assay is atherosclerotic plaques. Nature of the assay: Homing to atherosclerotic plaques in ApoE null mice on high-fat diet. The class given is in vivo. Conditions: 100 mg FAM labeled peptide i.v., one hour. On the procedure: ApoE null mice that had been kept on a high-fat diet were intravenously injected with […] of the FAM labeled peptides. One hour later, the mice were perfused through the heart under anesthesia, and tissues were collected. The panels show accumulation of FAM labeled peptides visualized with UV excitation. The center two and right two panels show atherosclerotic aortas that were sectioned at the aortic root level and examined by confocal microscopy.

The next assay concerns mitochondrial membranes. Conditions: significantly less than the concentration required to kill eukaryotic cells; cited from earlier work.
Another assay addresses NRP-1 (Homo sapiens, UniProt O14786). The experiment in a line: Fluorescence polarization assay on NRP-1 (control protein). The class given is binding. The settings on record: NRP-1 as control protein.
Source text: as §1

Bridge positions count the residues as written; N and C are the ends. Ends that are not written are not given here.

NRP-1, sequence (O14786 22-923): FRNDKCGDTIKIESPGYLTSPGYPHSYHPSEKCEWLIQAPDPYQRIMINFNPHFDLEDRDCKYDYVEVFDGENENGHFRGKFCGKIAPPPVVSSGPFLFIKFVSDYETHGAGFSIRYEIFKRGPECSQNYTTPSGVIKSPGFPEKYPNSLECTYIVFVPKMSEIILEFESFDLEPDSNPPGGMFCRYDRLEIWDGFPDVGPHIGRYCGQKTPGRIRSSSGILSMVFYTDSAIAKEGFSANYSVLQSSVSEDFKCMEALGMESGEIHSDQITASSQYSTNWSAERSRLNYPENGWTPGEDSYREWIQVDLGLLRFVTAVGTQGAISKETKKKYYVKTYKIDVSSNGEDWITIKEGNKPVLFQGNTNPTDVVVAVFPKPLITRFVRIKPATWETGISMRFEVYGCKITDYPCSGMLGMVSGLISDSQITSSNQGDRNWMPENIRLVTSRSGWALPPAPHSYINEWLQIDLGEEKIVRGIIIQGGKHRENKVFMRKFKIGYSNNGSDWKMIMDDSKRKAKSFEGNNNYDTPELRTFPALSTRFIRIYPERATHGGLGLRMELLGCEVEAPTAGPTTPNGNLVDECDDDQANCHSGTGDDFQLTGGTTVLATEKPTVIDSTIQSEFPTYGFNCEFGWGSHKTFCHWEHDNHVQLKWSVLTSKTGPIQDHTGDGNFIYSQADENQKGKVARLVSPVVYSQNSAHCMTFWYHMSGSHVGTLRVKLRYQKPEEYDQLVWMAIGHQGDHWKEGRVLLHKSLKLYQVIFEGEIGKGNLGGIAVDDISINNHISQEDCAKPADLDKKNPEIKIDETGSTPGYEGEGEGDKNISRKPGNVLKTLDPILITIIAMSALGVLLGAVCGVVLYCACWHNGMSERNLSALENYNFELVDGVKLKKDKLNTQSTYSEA

For the substance AKRGARSTA [LinTT1], the “affinity for p32 (in words)” value in the assay with p32 [1] (method not stated at the place) is recorded as “low affinity for the receptor”. Also, the “phage binding to p32 (in words)” value is on record as “retains the binding activity” with p32 [2] (listed as TT1 Peptide variant) and “retained the binding activity” in the assay with p32 [2] (listed as TT1 variant). Besides, the “tumor homing of peptide-coated NWs (in words)” value in assay [3] (7.5 mg iron/kg i.v., 5 hours circulation) is “most effective peptide in the nanoparticle context”.

Turning to “CGNKRTRGC (disulfide 1-9 (inferred)) [LyP-1, reference compound]”, the “homing to and penetration of orthotopic breast tumors” value in the assay with orthotopic breast tumors was “efficiently home to and penetrate orthotopic breast tumors in vivo”. For the same substance, in the assay with p32 [1], the “inhibition of binding of labeled TT1 to P32 by unlabeled peptide” value is recorded as “could be inhibited”. For the same substance, the “homing to and penetration into plaque tissue” value in the assay with atherosclerotic plaques is “seen inside plaques”. Further, the “tumor homing and extravascular penetration of homing peptide-D[KLAKLAK]2 NWs (in words)” value in assay [3] (homing peptide-D[KLAKLAK]2 chimeric peptide on NWs) was “more effective than the CGKRK”.

Consider CRGDKGPDC [iRGD], for which, in the assay with orthotopic breast tumors, the “homing to and penetration of orthotopic breast tumors” value is “efficiently home to and penetrate orthotopic breast tumors in vivo”.

For the substance “KLAKLAKKLAKLAK (also: D-amino acids, positions not given here) [D(KLAKLAK)2]”, in the assay with mitochondrial membranes, the “concentration inducing marked mitochondrial swelling” value was 10 µM.

In the case of RPARPAR [reference compound], the “binding to NRP-1 in fluorescence polarization assay (in words)” value in the assay with NRP-1 is given as “avidly bound to NRP-1”. Moreover, in the assay with p32 [1], the “inhibition of binding of labeled TT1 to P32 by unlabeled peptide” value is listed as “not”.

Values taken from patent US12195558B2, “Targeted delivery system and methods of use therefor” (SANFORD BURNHAM PREBYS MEDICAL DISCOVERY INSTITUTE, priority 2015, dated 2025).
